According to the supplement of paper PMC9112550, “Optimization of the antimicrobial peptide Bac7 by deep mutational scanning” (BMC Biology, 2022):

Each sequence was assayed on Escherichia coli TOP10 (assay: shrunken log2 fold change of peptide-encoding DNA abundance (4.5 h post-induction vs induction); higher = less antimicrobial activity (less host growth inhibition)). Conditions: time post-induction: 4.5 h; library: site-saturation at positions 5, 18, 19, 20.
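Further: peptides expressed intracellularly from a pBAD plasmid library in pooled LB shake-flask culture, induced with 0.3% L-arabinose, DNA abundance read by NGS, three biological replicates, DESeq2 with apeglm shrinkage.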

| Sequence | shrunken log2 fold change |
| --- | --- |
| RRIRVRPPRLPRPRPRPQRMPRP | 0.0511 |
| RRIRVRPPRLPRPRPRPQSLPRP | 0.0116 |
| RRIRVRPPRLPRPRPRPQTEPRP | -0.134 |
| RRIRVRPPRLPRPRPRPQTFPRP | -0.122 |
| RRIRVRPPRLPRPRPRPQTYPRP | -0.647 |
| RRIRVRPPRLPRPRPRPQVMPRP | -0.112 |
| RRIRVRPPRLPRPRPRPQWYPRP | -0.327 |
| RRIRVRPPRLPRPRPRPQYNPRP | -0.851 |
| RRIRVRPPRLPRPRPRPRARPRP | 0.737 |
| RRIRVRPPRLPRPRPRPRCAPRP | 0.517 |
| RRIRVRPPRLPRPRPRPRDAPRP | 0.422 |
| RRIRVRPPRLPRPRPRPRDVPRP | -0.113 |
| RRIRVRPPRLPRPRPRPRFFPRP | 0.287 |
| RRIRVRPPRLPRPRPRPRFGPRP | 0.249 |
| RRIRVRPPRLPRPRPRPRGAPRP | 0.567 |
| RRIRVRPPRLPRPRPRPRGFPRP | 0.26 |
| RRIRVRPPRLPRPRPRPRHVPRP | 0.0785 |
| RRIRVRPPRLPRPRPRPRHWPRP | 0.293 |
| RRIRVRPPRLPRPRPRPRIRPRP | -0.202 |
| RRIRVRPPRLPRPRPRPRKGPRP | 0.328 |
| RRIRVRPPRLPRPRPRPRMDPRP | -0.371 |
| RRIRVRPPRLPRPRPRPRNTPRP | -0.365 |
| RRIRVRPPRLPRPRPRPRPWPRP | 0.178 |
| RRIRVRPPRLPRPRPRPRRMPRP | 0.422 |
| RRIRVRPPRLPRPRPRPRRPPRP | 0.34 |

| Sequence | shrunken log2 fold change |
| --- | --- |
| RRIRVRPPRLPRPRPRPRRTPRP | 0.115 |
| RRIRVRPPRLPRPRPRPRTPPRP | 0.555 |
| RRIRVRPPRLPRPRPRPRVHPRP | 1.62 |
| RRIRVRPPRLPRPRPRPRWNPRP | 0.132 |
| RRIRVRPPRLPRPRPRPRYMPRP | -0.528 |
| RRIRVRPPRLPRPRPRPRYPPRP | -0.294 |
| RRIRVRPPRLPRPRPRPSAAPRP | 0.298 |
| RRIRVRPPRLPRPRPRPSAIPRP | -0.258 |
| RRIRVRPPRLPRPRPRPSCWPRP | 0.178 |
| RRIRVRPPRLPRPRPRPSECPRP | 0.0274 |
| RRIRVRPPRLPRPRPRPSFDPRP | -0.269 |
| RRIRVRPPRLPRPRPRPSFHPRP | -0.439 |
| RRIRVRPPRLPRPRPRPSGRPRP | 0.0291 |
| RRIRVRPPRLPRPRPRPSHRPRP | -0.615 |
| RRIRVRPPRLPRPRPRPSIGPRP | -0.197 |
| RRIRVRPPRLPRPRPRPSLCPRP | -0.233 |
| RRIRVRPPRLPRPRPRPSLGPRP | 0.0433 |
| RRIRVRPPRLPRPRPRPSLHPRP | -0.415 |
| RRIRVRPPRLPRPRPRPSMWPRP | -0.104 |
| RRIRVRPPRLPRPRPRPSPAPRP | 0.34 |
| RRIRVRPPRLPRPRPRPSPHPRP | -0.571 |
| RRIRVRPPRLPRPRPRPSPQPRP | 0.0525 |
| RRIRVRPPRLPRPRPRPSRQPRP | -0.0237 |
| RRIRVRPPRLPRPRPRPSSCPRP | -0.184 |
| RRIRVRPPRLPRPRPRPSTEPRP | -0.331 |

| Sequence | shrunken log2 fold change |
| --- | --- |
| RRIRVRPPRLPRPRPRPSVNPRP | -0.291 |
| RRIRVRPPRLPRPRPRPSWFPRP | -0.262 |
| RRIRVRPPRLPRPRPRPSWMPRP | -0.139 |
| RRIRVRPPRLPRPRPRPSYSPRP | -0.376 |
| RRIRVRPPRLPRPRPRPTDPPRP | 0.328 |
| RRIRVRPPRLPRPRPRPTDYPRP | -0.479 |
| RRIRVRPPRLPRPRPRPTECPRP | 0.00778 |
| RRIRVRPPRLPRPRPRPTFEPRP | -0.106 |
| RRIRVRPPRLPRPRPRPTFGPRP | 0.215 |
| RRIRVRPPRLPRPRPRPTGCPRP | 0.0918 |
| RRIRVRPPRLPRPRPRPTHDPRP | 0.143 |
| RRIRVRPPRLPRPRPRPTIAPRP | 0.335 |
| RRIRVRPPRLPRPRPRPTIFPRP | -0.469 |
| RRIRVRPPRLPRPRPRPTKDPRP | -0.303 |
| RRIRVRPPRLPRPRPRPTKRPRP | 0.331 |
| RRIRVRPPRLPRPRPRPTKVPRP | -0.341 |
| RRIRVRPPRLPRPRPRPTLPPRP | 0.335 |
| RRIRVRPPRLPRPRPRPTLWPRP | 0.259 |
| RRIRVRPPRLPRPRPRPTMGPRP | 0.04 |
| RRIRVRPPRLPRPRPRPTMLPRP | -0.205 |
| RRIRVRPPRLPRPRPRPTPDPRP | 0.182 |
| RRIRVRPPRLPRPRPRPTRQPRP | 0.0865 |
| RRIRVRPPRLPRPRPRPTRYPRP | -0.0106 |
| RRIRVRPPRLPRPRPRPTSKPRP | -0.144 |
| RRIRVRPPRLPRPRPRPTTEPRP | 0.14 |
